Target: ectodomain of APP^695
Assay: SPR

SPR sensorgram peak (response units) | Substance
1650 RU | SORLA^N1358S ectodomain (soluble mutant SORLA ectodomain, hexa-His-tagged) (from UniProt Q92673 82-2137) (domain or fragment)
1750 RU | SORLA^WT ectodomain (soluble wildtype SORLA ectodomain, hexa-His-tagged) (from UniProt Q92673 82-2137) (domain or fragment)
